Source: the supplement of paper PMC10724198
± gives the standard deviation of the averaged measurements.

Test system: Saccharomyces cerevisiae
Assay: protein stability index of tFT-peptide fusion (C-terminal peptide) (PSI (0-1 scale)); higher = more stable (slower turnover)
Details: genetic background: wild type; temperature: 30 C
Experimental: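 Multiplexed protein stability (MPS) profiling in S. cerevisiae. Random 12-aa peptides (tFT-X12 library) are fused to the C-terminus of a sfGFP-mCherry tandem fluorescent timer, after mCherry and a GGGS linker. Cells are FACS-sorted into 8 mCherry/sfGFP bins and deep-sequenced. The protein stability index (PSI) is the read-weighted bin average, scaled from 0 (unstable) to 1 (stable). Only peptides with >10 reads are reported; cells were grown at 30 °C in SC-His with glucose.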
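Note: PSI is a weighted mean of sequencing reads over stability bins, variants kept only with over 10 reads, mCherry proximal and sfGFP distal, peptide attached via GGGS linker.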

Sequence | protein stability index
LRDLLVFCDLFR | 0.695 ± 0.0082
FCFLAFLKTPKS | 0.58 ± 0.038
IGMICYGKDTQY | 0.726 ± 0.0073
GGPSLLEGGAWA | 0.6436 ± 0.0023
LKSYHKLKTCSS | 0.678 ± 0.061
GVGWVWGGVWAG | 0.744 ± 0.045
LISRLVSSLIHT | 0.621 ± 0.015
SPPPPLELIPSP | 0.534 ± 0.025
SARPDLAERHRP | 0.673 ± 0.013
LSASAWCSSLTR | 0.714 ± 0.047
LLPPGSSSRVAL | 0.733 ± 0.022
NKDKNDDRKLLG | 0.723 ± 0.12
CPPPPPPPRPPP | 0.639 ± 0.0095
LAAWQPTSYASV | 0.592 ± 0.092
CTVGWNLVFQFG | 0.641 ± 0.08
APSSPRSSTPRP | 0.763 ± 0.085
APPLPPLFPPSP | 0.677 ± 0.047
RTGLLLLVQDFR | 0.703 ± 0.018
GFYAWAISYLWQ | 0.509 ± 0.0086
RPSYRFFVRCSP | 0.762 ± 0.053
VPPLPPDSCTVT | 0.699 ± 0.073
NVYRYSWYCSEF | 0.728 ± 0.088
GSRALDSPSHCS | 0.74 ± 0.023
QFWRSSSSRLAS | 0.687 ± 0.045
PHLRTRRPPLLH | 0.694 ± 0.01

Sequence | protein stability index
GSWLGGRTLAGI | 0.707 ± 0.036
RIHQRTSLHKAH | 0.609 ± 0.13
ETGMSHHINRIW | 0.752 ± 0.054
PSPPPLPSPPSL | 0.738 ± 0.087
PRCVRFPPVTLL | 0.7393 ± 0.0036
AGRGRAIGAGFS | 0.649 ± 0.054
GRLFLHPSLLAS | 0.596 ± 0.062
QSAAPISTPSLC | 0.694 ± 0.012
MGGMGRGGRREI | 0.692 ± 0.022
IRKIIHIDNGNT | 0.741 ± 0.096
LQPPAPPSPQSD | 0.702 ± 0.081
PLSPLVPVRTRP | 0.682 ± 0.072
EIKGTQRKGGKR | 0.726 ± 0.055
THSLRIRESNNT | 0.674 ± 0.014
VHSGKGRQAKER | 0.715 ± 0.048
RGVREVGSAELV | 0.731 ± 0.022
PPPPSPGPASPA | 0.716 ± 0.045
SPPPALPPSSPS | 0.657 ± 0.025
KNNSKKRKLKPR | 0.718 ± 0.14
REEKRREEEGKK | 0.701 ± 0.028
LFPRPSILKGVP | 0.657 ± 0.091
VRDGPRCPVACP | 0.621 ± 0.02
PAPLPFPPPSLP | 0.701 ± 0.032
GCFYYWSVNVSY | 0.5599 ± 0.0036
FLLKKVLCINWQ | 0.545 ± 0.0028

Sequence | protein stability index
APTVPQILVRHA | 0.6736 ± 0.0047
KREKKNTYIKKV | 0.671 ± 0.04
KLKITSKDKIIK | 0.671 ± 0.016
LPPPLPSTRPVF | 0.6943 ± 0.005
AFRCGGGPGDFA | 0.6513 ± 0.0027
GLGQGVGWPWAV | 0.678 ± 0.024
TSEIGKEINYRK | 0.66 ± 0.017
RCAGWSVDVGEG | 0.623 ± 0.17
SPRLPPSTHSPP | 0.677 ± 0.15
GAPTYTGEPRTP | 0.742 ± 0.032
PPPNPPATTTTP | 0.6685 ± 0.0012
VDGRIYIGIISR | 0.677 ± 0.032
PPFPPLPSPFTS | 0.708 ± 0.018
WLGGGGGMQGVR | 0.669 ± 0.057
RGRRFMRGEVGG | 0.6528 ± 0.0055
GRGICFGLPFLR | 0.683 ± 0.039
DASLTSGVARST | 0.67 ± 0.042
SNLYNSENVPVD | 0.709 ± 0.041
RLPPLFPPPPPC | 0.709 ± 0.038
RDQMDNILQRFR | 0.656 ± 0.077
HFPIPPSLFFRP | 0.631 ± 0.019
ELSRLLPASFSL | 0.696 ± 0.032
KKKKRIQEKEII | 0.63 ± 0.015
